Patent US9371519B2, “Complex type sugar chain hydrolase” (National Institute of Advanced Industrial Science and …, priority 2011, dated 2016)

B1: Endo-Cp: endo-β-N-acetylglucosaminidase from Candida parapolymorpha DL-1 ATCC26012, amino acid sequence SEQ ID NO. 5, 745 amino acids (protein, listed as Candida parapolymorpha)
chain: MPRNTAKHSSLPQTNLPLSSLESSFFDSLDELANWERRIHEKSFELDELNKPTEKLAHYTRARQQSTSEDVKLLVCHDLKGGYQVNEDEDPLGYFPHPDGQHYFLQYPQLVDKFVYFSHHRVSIPPVSWINVCHRNAIKCLGTVIFEGNTYRDFEEADKLLTKQDGEYVFVRCLVALVEYFQFDGYLFNIETRFSNTRIASLLEPFLEQLRAELHVRNPSTELIWYDSYIYPENRVLYKNGVTEANYNFFSCCDSFFTNYWWNVKHLQDNIKNVGVLGSRLKVYAGYDVWGRGTMIGKGGYDSALACQMIKKYRSNVALFAPAWTYEYLARKDFTQNDTRFWIGLFDGESSMATTFKPYSSPLYKINDSNFVFYTNFGSGEGCAFYECGEKVYRDNWVNGSLQMEIPYAIHTRNKNGIQWTLSKEDSFHGGSCVEIKYNEVVDDKGYQVFNNQTINSFSLFSFVQDCSFPTVNVKLTYKLNHKTKSFFKLKIGYYIERRYRTVQKVRSGCLVVPLLSTNDQWFTIEEPFHVSLQNSHEFIVLDSATIFYEETEDPFMRAHVVEDQSTSSVIDNEEYEKLMNSEIYFDDEDEDWILVPSDISMESTDNGGRENHTWKVISNQIRKKHPKSHPSTSPVLKLGELAIINANDYPSDSFFKLMPVNSIDVRRWEGKILLIWKTNQDSVLYHLIFVDDVFQGISLVSKFVFEDQAVDEKSFKTKSGGSTKVRIDTVNRLGILVKGTDM
B2: Endo-Om: endo-β-N-acetylglucosaminidase from methylotrophic yeast Ogataea minuta IFO10746, amino acid sequence SEQ ID NO. 1, 772 amino acids (protein, listed as Ogataea minuta)
chain: MAQSQLLGGAVRPVFFDKLEELRRWHTQSANLSRESELDSLNVATEPFSSYERAQTGSGSRSSEPVPGDKEDPPIKLMVCHDFKGGYQDYEDAQPLGYFPHPTGSRYFLQYPQLIDQFVYFSHHRVTVPPVNWINFCHRNGIKCFGTVIFEGNASKDFEELDRLVSRDEKGDFVFVDALIKLAAHYGFDGYLLNIETTFSNTKIAADLEPFAEQLKSGLHCLDSKNELIWYDSYVFPANKVSYTNGVTESNYNFFSLSDAFFSNYWWNIKNLQENIKNVGVLGVQKKIYVGYDVWGRGTLVGKGGFDSSLACKMIAKFKSNVALFAPAWTYESLGPKDFNQNDARFWIGLFENESSISSTVPPHSSAVYKINESSFIFYTNFSSGEGNRFFSKGSEVYRKNWVNGSLQFDLPIDLHRKDKNGLQWALDKSDAFHGGACLEIKYSEIKDENGYQIFNNQMVSDFTLFNFTKECHFPTVNVKVTYKLNHKTKSTFKIKIKYIIERRFRSVQTVRTGYLTIPLLSTSGKWFTVEESFQINLQTSHEYIVLESAHVTYDEDRSADSFFRSYIVEDSAITSVIDNEEYEKLINSEIYNDDEDEDWILVPSDVSISSSESQSNDSKTQYLGRKLFGNKSTPKTRTLEGTAPLLRIGEFAIISANNYPSSNFLAVTSVKSIESSRLEGDSLVLLNWQVGEGHQKGVCYYIIYVNGAVVGLSVAPKFIYQDTELASENSASARSNYKKSGLGSSSDRKSKVRVDSVDKLGNVFTGSEVWV

Assay: Enzyme activity measurement with NGA2-Asn-Fmoc by HPLC (specific activity, Km, Vmax)
Type: biochemical
Conditions: for Specific activity: 1 mM NGA2-Asn-Fmoc as substrate
Protocol: The enzyme activity was measured as follows. A reaction solution (total volume: 10 μl) containing 100 mM of a sodium acetate buffer (pH 5.3) at the final concentration, 0.5 M NaCl, 10 μM of a Fmoc-labeled biantennary complex type sugar chain (NGA2-Asn-Fmoc), […], and heated at 95° C. for 5 minutes, thereby stopping the enzyme reaction. The reaction solution was subjected to HPLC, and the enzymatic activity was calculated from the peak area ratio between the NGA2-Asn-Fmoc as the substrate and its hydrolysate. The column was Asahipak NH2P-50 4E (4.6.250 mm, Shodex), and the solvents were acetonitrile (solvent A) and 200 mM of TEAA (pH 7.0, GLEN RESEARCH: solvent B). Isocratic elution was carried out at a flow rate of 1.0 ml/min, and the solvent B: 43%, and detection was carried out using a fluorescence detector (excitation wavelength 265 nm, and fluorescence wavelength 315 nm). The activity hydrolyzing […] of NGA2-Asn-Fmoc in 1 minute under the above-described reaction conditions was defined as 1 Unit of the enzymatic activity of Endo-Om.
The properties of Endo-Om were studied using a purified enzyme solution. According to the method described in Example 4, the Endo-Om crude enzyme solution prepared from 100 ml culture was substituted with an equilibration buffer (20 mM sodium phosphate buffer (pH 7.4), 0.5 M NaCl, 0.5 mM PMSF, 50 mM imidazole) by dialysis. The Endo-Om crude enzyme solution after dialysis was subjected to a HisTrap HP column (GE Healthcare), washed with the equilibration buffer, and eluted stepwise by an equilibration buffer containing 50 mM, 100 mM, and 200 mM of imidazole, thereby eluting the protein. The fraction containing Endo-Om eluted from the column was subjected to ultrafiltration concentration using Amicon Ultra (50,000 NMWL, Millipore), further dialyzed with 20 mM of sodium phosphate buffer (pH 7.4) and 0.5 M of NaCl, and glycerol was added to make the final concentration 10%, thereby making an Endo-Om purified enzyme solution. According to the method described in Example 4, the activity of the Endo-Om purified enzyme solution when the substrate concentration was 1 mM was measured, and the specific activity was calculated. In addition, activity measurement was carried out using NGA2-Asn-Fmoc at different concentrations as the substrates, and Km and Vmax were calculated. For comparison, the specific activity, Km, and Vmax of the commercially available Endo-M were calculated by the same method. The optimal pH of Endo-M is 6.0 (Non Patent Literature 6), so that the pH of the sodium acetate buffer was made 6.0 when measuring the activity of Endo-M.
The enzyme activity was measured as follows. A reaction solution (total volume: 10 μl) containing 100 mM of a sodium acetate buffer (pH 5.3) at the final concentration, 0.5 M NaCl, 10 μM of a Fmoc-labeled biantennary complex type sugar chain (NGA2-Asn-Fmoc), and Endo-Cp was incubated at 30° C. for 3 hours, and heated at 95° C. for 5 minutes, thereby stopping the enzyme reaction. The reaction solution was subjected to HPLC, and the enzymatic activity was calculated from the peak area ratio between the NGA2-Asn-Fmoc as the substrate and its hydrolysate. […] Isocratic elution was carried out at a flow rate of 1.0 ml/min, and the solvent B: 43%, and detection was carried out using a fluorescence detector (excitation wavelength 265 nm, and fluorescence wavelength 315 nm). […]
The enzyme activity was measured as follows. […]

Molecule | Specific activity of partially purified enzyme solution (10 μM NGA2-Asn-Fmoc as substrate, pH 5.3, 30° C.) [μUnit/mg] | Specific activity (purified Endo-Om) [µmol/min/mg] | Specific activity (purified Endo-Om (pH 5.3), commercially available Endo-M (pH 6.0)) [µmol/min/mg] | Km relative to the Km of Endo-M (NGA2-Asn-Fmoc) [times] | Vmax relative to the Vmax of Endo-M (NGA2-Asn-Fmoc) [times]
B1 | 120 | – | – | – | –
B2 | – | 0.8 | 0.80 | 31 | 55
